{"source": "paper PMC12913940", "target": "Crassostrea gigas GABARAPL2, Flag-tagged (Crassostrea gigas)", "experiment": "co-IP"}
{"substance": "Crassostrea gigas starch-binding domain-containing protein 1 (STBD1), HA-tagged (natural protein)", "values": [{"measurement": "fold intensity of the co-IP against the other three Atg8 family members", "value": 4.4, "unit": "fold"}]}
